Reference: the supplement of paper PMC10567573

B1: ATE1 (parent)
chain: YGSFHQQYWLDGKIIAVGVIDILP
B2: OAS1 (parent)
chain: LTVYAWERGSMKTHFNTAQGFRTV

Variants of: B1
Experiment: protein stability index of a GFP-peptide fusion (GPS, HEK-293T) (PSI 1-6); higher = more stable
Settings: c terminus: a fixed tail appended
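Note: lentivirally expressed fusions sorted by FACS into six bins by GFP to DsRed ratio, PSI derived from sequencing read proportions per bin multiplied by bin number.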

Variant	protein stability index
S3I	3.48
S3V	3.33
S3P	2.19
S3R	2.02
S3E	1.34
S3Y	2.74
S3K	2.55
S3T	2.22
S3W	2.82
S3H	2.96
S3D	4.93
Q7R	2.99
Q7G	3.84
Q7S	4.74
Q7H	2.4
Q7C	3.33
Q7A	4.84
Q7P	2.94
Q7W	4.02
Q7M	1.76
Q7D	2.72
Q7I	2.67
Q7T	3.51
Q7L	2.01
Q7F	2.02

Variant	protein stability index
G2T	4.66
G2E	2.72
G2D	2.58
G2L	1.66
G2Q	2.66
G2N	4.75
G2P	3.53
G2R	3.47
G2K	2.49
G2S	1.91
G2M	2.57
G2Y	3.14
G2I	3.05
G2H	2.47
G2C	2.8
Y8N	3.57
Y8Q	3.04
Y8D	2.78
Y8F	3.62
Y8W	2.58
Y8K	2.35
Y8P	2.93
Y8I	3.92
Y8H	2.57
F4Y	4.54

Variant	protein stability index
F4N	3.28
F4I	2.92
F4H	2.83
F4P	1.93
F4Q	2.72
F4S	3.69
F4V	1.4
F4M	2.76
F4W	2.2
F4D	2.95
F4E	3.75
W9E	2.26
W9D	2.53
W9C	2.17
W9H	3.06
W9A	2.18
H5M	1.77
H5A	2.77
H5R	2.13
H5P	2.32
H5D	4.47
H5I	1.49
H5F	2.61
H5Y	3.26
H5Q	2.37

Variant	protein stability index
Y1H	2.79
Y1M	1.87
Y1S	4.07
Y1E	1.92
Y1N	1.77
Y1C	3.63
Y1K	3.54
Y1F	3.22
Y1L	1.73
Q6F	2.94
Q6T	3.63
Q6Y	2.43
Q6I	3.08
Q6K	3.09
Q6S	2.86
Q6G	2.41
Q6H	2.7
Q6W	1.19
Q6N	3.97
Q6R	3.54
Q6A	3.19
Q6D	2.55

Variants of: B2
Experiment: as above
Settings: c terminus: a fixed tail appended

Variant	protein stability index
M11F	2.49
M11R	2.16
M11D	2.21
T23F	2.29
A5P	2.19
A5G	2.14
F21N	2.87
W6K	1.53
W6I	2.41
W6E	2.23
W6V	2.29
T17G	2.67
T17N	1.72
V3L	2.49
Q19S	2.63
Q19H	2.65
Q19C	3.17
Q19D	4.39
Q19L	3.4
G9R	2.02
G9C	3.73
R22M	2.53
R22H	3.33
T13Q	2.06

Variant	protein stability index
T13C	1.13
T13K	1.51
T13Y	3.56
V24L	1.68
V24A	2.04
V24P	2.64
V24I	3.42
V24G	1.73
V24C	2.83
S10F	2.93
T2K	2.87
T2I	2.45
T2F	3.19
T2R	2.04
T2S	2.21
T2Y	2.45
T2C	1.6
R8Y	3.38
R8M	2.73
E7G	2.18
E7T	3.32
E7L	3.71
E7N	1.99
N16V	3.22

Variant	protein stability index
N16E	2.21
N16Q	2.83
N16A	3.67
H14S	2.44
H14T	2.86
K12F	1.8
K12Q	2.43
L1F	2.48
L1K	2.17
L1S	2.1
L1E	2.17
F15T	1.9
F15N	1.55
F15E	2.27
F15D	2.47
F15S	2.49
F15I	2.88
Y4F	2.96
Y4N	1.94
Y4G	2.76
Y4T	1.59
Y4Q	1.86
